Data on 1 molecule can be found in patent US20200147177A1, “INTERLEUKIN 12 (IL12) OR DERIVATIVE THEREOF FOR USE IN THE TREATMENT OF SECONDARY DISEASE” (priority 2017, published 2020).

Assay [1] relates to lung DC, macrophages and NK cells. The experiment in a line: Intracellular staining of DC, macrophages and lymphocytes for cytokines during secondary pneumonia. In kind it is in vivo, mice. The settings on record: IL-12 100 ng i.p.; secondary pneumonia 7 days after primary E. coli pneumonia; FIG. 11e. Here is the method: For intracellular staining of cytokines in DC or lymphocytes, cell suspensions were obtained by mechanical and collagenase digestion of lungs collected 16 hours after injection of E. coli. Cells were cultured 4 hours in complete media with Golgi Plug, washed twice and then stained for surface markers. Fixation and permeabilization was performed following manufacturer instructions (BD Cytofix/Cytoperm kit, BD Bioscience). Anti-cytokine antibody was incubated overnight at 4° C. Cells were washed twice before FACS analysis.
Mice were treated with IL-12 (100 ng i.p., Abcam) concomitantly to the induction of the secondary pneumonia. Anti-TGFβ monoclonal antibody (1B11, 44 μg i.p. every 3 days) or isotype control IgG1 monoclonal antibody (MG1-45, Biolegend) injections were performed 3 and 6 days after primary pneumonia. TGF-β (1 μg i.p., Thermofisher) was injected once 6 days after primary pneumonia in DT-treated CD11c-DTR chimeric mice

A further assay concerns Escherichia coli. The experiment in a line: Secondary E. coli pneumonia in infection-cured mice, c.f.u. in bronchoalveolar lavage. The format is in vivo. To be noted: IL-12 100 ng i.p. concurrent with induction of secondary pneumonia; c.f.u. from BAL 16 hours after E. coli; FIG. 4g.
A further assay relates to NK cells. Kind of assay: Functional assay of NK cells in PBMC treated or not overnight with IL12. The format is cell-based, human. To be noted: PBMC of traumatic-brain injured patients day 1 and day 7 and healthy controls; overnight IL-12; 5-hours functional assay; FIG. 18. The text has this:
(i) spontaneous lysis with and without O/N treatment with IL-12 of PBMC of traumatic-brain injured patients on days 1 (d1) (n=5) and day 7(d7) (n=5) and healthy controls (HC) (n=5) and (ii) reverse ADCC with and without O/N treatment with IL-12 of PBMC of TBI on days 1 (n=6) and 7 (n=6) and HC (n=4)
EDTA-anticoagulated blood samples were withdrawn seven days after primary infection in septic patients (IBIS sepsis), or at day 1 and day 7 ICU admission in trauma patients. Peripheral blood mononuclear cells (PBMCs) were isolated by centrifugation, frozen in liquid nitrogen in a 10% DMSO solution and stored until analysis.

For another assay, the system named is E. coli, S. aureus. The experiment in a line: Bacterial pneumonia in mice cured from infection or from trauma-hemorrhage (FIG. 17). In kind it is in vivo.

B1: IL-12: heterodimeric cytokine encoded by IL-12A (p35) and IL-12B (p40); Abcam, 100 ng i.p. (protein, UniProt P43431 23-215; P43432 23-335, looked up)
Interleukin-12 subunit alpha: RVIPVSGPARCLSQSRNLLKTTDDMVKTAREKLKHYSCTAEDIDHEDITRDQTSTLKTCLPLELHKNESCLATRETSSTTRGSCLPPQKTSLMMTLCLGSIYEDLKMYQTEFQAINAALQNHNHQQIILDKGMLVAIDELMQSLNHNGETLRQKPPVGEADPYRVKMKLCILLHAFSTRVVTINRVMGYLSSA
Interleukin-12 subunit beta: MWELEKDVYVVEVDWTPDAPGETVNLTCDTPEEDDITWTSDQRHGVIGSGKTLTITVKEFLDAGQYTCHKGGETLSHSHLLLHKKENGIWSTEILKNFKNKTFLKCEAPNYSGRFTCSWLVQRNMDLKFNIKSSSSSPDSRAVTCGMASLSAEKVTLDQRDYEKYSVSCQEDVTCPTAEETLPIELALEARQQNKYENYSTSFFIRDIIKPDPPKNLQMKPLKNSQVEVSWEYPDSWSTPHSYFSLKFFVRIQRKKEKMKETEEGCNQKGAFLVEKTSTEVQCKGGNVCVQAQDRYYNSSCSKWACVPCRVRS
Consider B1, for which the “IFN-γ production by NK cells during secondary pneumonia” value in assay [1] is “restored”. For the same molecule, the “bacterial clearance during secondary pneumonia” value with Escherichia coli was “enhanced bacterial clearance”. The “responsiveness of NK cells to IL-12 (IFNγ+ CD107a+ NK cells)” value in the assay on NK cells is “remain responsive”. Further, in the assay on E. coli, S. aureus, the “clinical recovery during bacterial pneumonia” value was “enhances clinical recovery” and the “innate immune response during bacterial pneumonia” value is given as “restores innate immune response”.
